Data reported in patent publication US20200040057A1 (IMMATICS BIOTECHNOLOGIES, published 2020).

These binders were tested against HLA-B*07 (human) (assay: UV peptide exchange ELISA; +++ = yield >50).

Question: With SPTPVFTTL as the binder, how does the peptide exchange yield read?
Answer: 50 to 75%

Question: Which peptide exchange yield does the source give for SSPRGTTSTL here?
Answer: 50 to 75%

Question: KPIRTGISPLAL was tested. Which peptide exchange yield did it give?
Answer: 50 to 75%

Question: For IPAPQGAVL, which peptide exchange yield is on record?
Answer: 50 to 75%

Question: For LIAARGSLVL, which peptide exchange yield is on record?
Answer: 50 to 75%

Question: APADEPRTVL was tested. Which peptide exchange yield did it give?
Answer: 50 to 75%

Question: How did the peptide exchange yield turn out when RITWKGLLL was run?
Answer: 50 to 75%

Question: For LHAMNSLSAM, which peptide exchange yield is on record?
Answer: 50 to 75%

Question: LPYEKVSRL was tested. Which peptide exchange yield did it give?
Answer: 50 to 75%

Question: How did the peptide exchange yield turn out when SPSKSLEM was run?
Answer: 50 to 75%

Question: LPMTHRLQL was tested. Which peptide exchange yield did it give?
Answer: 50 to 75%

Question: RVLLRWISL was tested. Which peptide exchange yield did it give?
Answer: 50 to 75%

Question: How did the peptide exchange yield turn out when HPYSDLADVF was run?
Answer: 50 to 75%

Question: With FPAFLEAM as the binder, how does the peptide exchange yield read?
Answer: 50 to 75%

Question: With IPIDQILNSF as the binder, how does the peptide exchange yield read?
Answer: 50 to 75%

Question: How did the peptide exchange yield turn out when AASPVGSAL was run?
Answer: 50 to 75%

Question: For RPFPLALL, which peptide exchange yield is on record?
Answer: 50 to 75%

Question: Which peptide exchange yield does the source give for WPRLPGAGL here?
Answer: 50 to 75%

Question: With RPHQKGWLSI as the binder, how does the peptide exchange yield read?
Answer: 50 to 75%

Question: FAFYGGKSL was tested. Which peptide exchange yield did it give?
Answer: 50 to 75%

Question: For SPSLQSSRESL, which peptide exchange yield is on record?
Answer: 50 to 75%

Question: NPREPEKSL was tested. Which peptide exchange yield did it give?
Answer: 50 to 75%

Question: With QPQQPGFFL as the binder, how does the peptide exchange yield read?
Answer: 50 to 75%

Question: How did the peptide exchange yield turn out when RAVPVGSGL was run?
Answer: 50 to 75%

Question: LPLHRGDLVI was tested. Which peptide exchange yield did it give?
Answer: 50 to 75%

Question: QPANFIVLL was tested. Which peptide exchange yield did it give?
Answer: 50 to 75%

Question: SPDSAILKL was tested. Which peptide exchange yield did it give?
Answer: 50 to 75%

Question: With SVLPRALSL as the binder, how does the peptide exchange yield read?
Answer: 50 to 75%

Question: For VPPQNPRPSL, which peptide exchange yield is on record?
Answer: 50 to 75%

Question: Which peptide exchange yield does the source give for YPLQGPGLLSV here?
Answer: 50 to 75%

Question: With MPATPSLKV as the binder, how does the peptide exchange yield read?
Answer: 50 to 75%

Question: Which peptide exchange yield does the source give for GPQRTTSV here?
Answer: 50 to 75%

Question: How did the peptide exchange yield turn out when APEPRAALL was run?
Answer: 50 to 75%

Question: How did the peptide exchange yield turn out when RPRPPKVL was run?
Answer: 50 to 75%

Question: How did the peptide exchange yield turn out when RPRPPKVLGL was run?
Answer: 50 to 75%

Question: With SAAPPGASL as the binder, how does the peptide exchange yield read?
Answer: 50 to 75%

Question: How did the peptide exchange yield turn out when HPAPPVTSA was run?
Answer: 50 to 75%

Question: Which peptide exchange yield does the source give for SPYADIIPSA here?
Answer: 50 to 75%

Question: Which peptide exchange yield does the source give for KPRATWTL here?
Answer: 50 to 75%

Question: RPFLRLPSL was tested. Which peptide exchange yield did it give?
Answer: 50 to 75%

Question: How did the peptide exchange yield turn out when APSMLRKNQL was run?
Answer: 50 to 75%

Question: Which peptide exchange yield does the source give for KPMLPPAAF here?
Answer: 50 to 75%

Question: How did the peptide exchange yield turn out when RPQGAVGGL was run?
Answer: 50 to 75%

Question: With APRSPGQVTPRGL as the binder, how does the peptide exchange yield read?
Answer: 50 to 75%

Question: Which peptide exchange yield does the source give for SPFSKRIKL here?
Answer: 50 to 75%

Question: APRPRLLLL was tested. Which peptide exchange yield did it give?
Answer: 50 to 75%

Question: With KPRATWTLKL as the binder, how does the peptide exchange yield read?
Answer: 50 to 75%

Question: Which peptide exchange yield does the source give for RIRVTSEVL here?
Answer: 50 to 75%

Question: With VPVSHPVLTL as the binder, how does the peptide exchange yield read?
Answer: 50 to 75%

Question: Which peptide exchange yield does the source give for VPFVPRTSV here?
Answer: 50 to 75%

Question: VPAAPTKAL was tested. Which peptide exchange yield did it give?
Answer: 50 to 75%

Question: How did the peptide exchange yield turn out when SPARALLLALA was run?
Answer: 50 to 75%

Question: YPGFTKRL was tested. Which peptide exchange yield did it give?
Answer: 50 to 75%

Question: Which peptide exchange yield does the source give for KPAAAGVKKVA here?
Answer: 50 to 75%

Question: Which peptide exchange yield does the source give for LPLGGLPLLI here?
Answer: 50 to 75%

Question: How did the peptide exchange yield turn out when RPGPSDPAA was run?
Answer: 50 to 75%

Question: LPLRAVNLNL was tested. Which peptide exchange yield did it give?
Answer: 50 to 75%

Question: With MPAVSGPGPLF as the binder, how does the peptide exchange yield read?
Answer: 50 to 75%

Question: With YVVKPLHPF as the binder, how does the peptide exchange yield read?
Answer: 50 to 75%

Question: Which peptide exchange yield does the source give for APMAPGRSP here?
Answer: 50 to 75%

Question: How did the peptide exchange yield turn out when APLPPPRAL was run?
Answer: 50 to 75%

Question: For RPFSREMDL, which peptide exchange yield is on record?
Answer: 50 to 75%

Question: For LPPPRALTL, which peptide exchange yield is on record?
Answer: 50 to 75%

Question: QPRPSSEKI was tested. Which peptide exchange yield did it give?
Answer: 50 to 75%

Question: TRPWSGPYIL was tested. Which peptide exchange yield did it give?
Answer: 50 to 75%

Question: QPISGNPVTL was tested. Which peptide exchange yield did it give?
Answer: 50 to 75%

Question: Which peptide exchange yield does the source give for RPRYSIGL here?
Answer: 50 to 75%

Question: APEKARAFL was tested. Which peptide exchange yield did it give?
Answer: 50 to 75%

Question: How did the peptide exchange yield turn out when PEKARAFL was run?
Answer: 50 to 75%

Question: KEDNPSGHTYTL was tested. Which peptide exchange yield did it give?
Answer: 50 to 75%

Question: With VPSCGRSVEGL as the binder, how does the peptide exchange yield read?
Answer: 50 to 75%

Question: With KPQSTISGL as the binder, how does the peptide exchange yield read?
Answer: 50 to 75%

Question: How did the peptide exchange yield turn out when FPHMATTAF was run?
Answer: 50 to 75%

Question: With RPEDGRPRL as the binder, how does the peptide exchange yield read?
Answer: 50 to 75%

Question: How did the peptide exchange yield turn out when APFAPLHGGGSL was run?
Answer: 50 to 75%
